This passage reports stoichiometry N results from paper PMC10067955.

The test deals with NcsA from Methanococcus maripaludis (Methanococcus maripaludis). The test is described as follows: SEC; apo-MmNcsA on a gel filtration column calibrated with protein standards. In general terms: In gel filtration, larger molecules generally elute earlier.

Usually stoichiometry N stands for the number of molecules, sites or subunits per partner or assembly. Substance “NcsA from Methanococcus maripaludis (enzyme)” showed a stoichiometry N of 2.
